The values that follow come from publication PMC8795117, “Structures and function of a tailoring oxidase in complex with a nonribosomal peptide synthetase module” (Nature Communications, 2022).

For orientation: Kd means the concentration at which binding is half-saturated. High values mean a looser complex, low ones a tighter complex.

“And” between values parts separate entries of the source, which are not always exact repeats. Equal values may be shown once.

The experiment deals with T1, BmdC (Thermoactinomyces vulgaris F-5595).
T1 construct: BmdC, FMN-dependent oxidase of the bacillamide pathway, Thermoactinomyces vulgaris F-5595 (WP_022737638.1); RREL domain, 45-residue loop, Ox domain (residues 142-325); Co-purifies with FMN; also called oxidase BmdC; dimeric BmdC; source: E. coli BL21(DE3), purified (IMAC, CBP column, TEV cleavage, gel filtration)
The experiment in a line: ITC; 600 μM BmdB A2 injected into 60 μM dimeric BmdC, 25 °C, 50 mM Tris-HCl pH 7.5, 200 mM NaCl, 1 mM TCEP; fitted with a binding model using a stoichiometry of 1; triplicate. Conditions: both partners purified. (In general: In ITC the heat of successive injections is recorded.)

B1: BmdB_A2 (domain or fragment)
chain: YNATAEPIPAATLHQLFIDQAQRTPDQVAVVFEQEWLTYSELDQRSNQVARFLQSRGIGRGDRVGVLAKRQVETIINLMAVLKAGAAYVPIDPDHPYERQTYILENSSCKILLDSDLYETMEISSYADGDLTPVAEPEDTAYVIYTSGSTGRPKGVIITHQAASNTIQDINRKFEVNEEDRIIGISSMCFDLSVYDIFGTLSAGATLVMIRDPRDMRELVRTVERRGITIWNTVPAIMDLALDHVGSHFENISLRLVLLSGDWIPLPLPAKINRHFPVADVISLGGATEASIWSIYWPIEQVEANWKSIPYGKPLANQTYYVLNYDQKMCPVGVIGDLYIGGAGLAQGYLNDDQKTKDAFIMHPEFGPIYKTGDCGRMRPEGYIEFLGRQDYQVKIQGYRVELEEISHCLLTYPDVDQAVVIDQTDERGMKFLVGYVVAQQEIDEKALRKHLMEHLPEYMIPAHLVHLEQLPLTPNGKLDRKALPVPKKQRNAEKFV
For the molecule B1, the Kd is ~75 nM and 44 to 118 nM.
